In US20150344570A1 (published 2015):

T1: FcγRIIa R extracellular domain with C-terminal His tag (human, UniProt P12318 34-217)
T1 construct: extracellular domain; also called FcgRIIa R; 2aR; not shown: His tag at the C terminus
T1 sequence (looked up): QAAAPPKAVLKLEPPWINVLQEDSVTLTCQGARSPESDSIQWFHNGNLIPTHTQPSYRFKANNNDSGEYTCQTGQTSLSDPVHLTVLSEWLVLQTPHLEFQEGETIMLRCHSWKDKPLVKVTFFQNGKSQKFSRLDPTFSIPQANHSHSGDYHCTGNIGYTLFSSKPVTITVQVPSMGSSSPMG

B1: GpH7-B3 variant K334_02A/GpL16-k0 (antibody, human IgG1, kappa)
heavy: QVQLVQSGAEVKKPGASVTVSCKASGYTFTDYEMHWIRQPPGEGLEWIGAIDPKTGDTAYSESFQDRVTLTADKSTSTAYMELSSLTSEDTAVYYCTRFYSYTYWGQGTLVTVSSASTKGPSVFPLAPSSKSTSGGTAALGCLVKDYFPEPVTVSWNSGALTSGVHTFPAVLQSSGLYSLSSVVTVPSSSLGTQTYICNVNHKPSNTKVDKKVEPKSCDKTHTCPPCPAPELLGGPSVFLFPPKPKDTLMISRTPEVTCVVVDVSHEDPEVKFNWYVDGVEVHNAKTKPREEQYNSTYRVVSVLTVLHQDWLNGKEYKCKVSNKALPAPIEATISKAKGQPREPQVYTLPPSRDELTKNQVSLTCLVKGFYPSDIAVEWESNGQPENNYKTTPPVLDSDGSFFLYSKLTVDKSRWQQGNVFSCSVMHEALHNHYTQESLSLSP
light: DIVMTQSPLSLPVTPGEPASISCQASESLVHSNRNTYLHWYLQKPGQSPQLLIYKVSNRFSGVPDRFSGSGSGTDFTLKISRVEAEDVGVYYCSQNTHVPPTFGQGTKVEIERTVAAPSVFIFPPSDEQLKSGTASVVCLLNNFYPREAKVQWKVDNALQSGNSQESVTEQDSKDSTYSLSSTLTLSKADYEKHKVYACEVTHQGLSSPVTKSFNRGEC
notes: homodimerized: alteration in both H chains; also called Ho Ab K334_02A
B2: GpH7-B3 variant K334_08L/GpL16-k0 (antibody, human IgG1, kappa)
heavy: not shown
light: B1 light
notes: homodimerized: alteration in both H chains; also called Ho Ab K334_08L
B3: GpH7-B3 variant S337_15Y/GpL16-k0 (antibody, human IgG1, kappa)
heavy: not shown
light: B1 light
notes: homodimerized: alteration in both H chains; also called Ho Ab S337_15Y
B4: GpH7-B3 variant S324_06M/GpL16-k0 (antibody, human IgG1, kappa)
heavy: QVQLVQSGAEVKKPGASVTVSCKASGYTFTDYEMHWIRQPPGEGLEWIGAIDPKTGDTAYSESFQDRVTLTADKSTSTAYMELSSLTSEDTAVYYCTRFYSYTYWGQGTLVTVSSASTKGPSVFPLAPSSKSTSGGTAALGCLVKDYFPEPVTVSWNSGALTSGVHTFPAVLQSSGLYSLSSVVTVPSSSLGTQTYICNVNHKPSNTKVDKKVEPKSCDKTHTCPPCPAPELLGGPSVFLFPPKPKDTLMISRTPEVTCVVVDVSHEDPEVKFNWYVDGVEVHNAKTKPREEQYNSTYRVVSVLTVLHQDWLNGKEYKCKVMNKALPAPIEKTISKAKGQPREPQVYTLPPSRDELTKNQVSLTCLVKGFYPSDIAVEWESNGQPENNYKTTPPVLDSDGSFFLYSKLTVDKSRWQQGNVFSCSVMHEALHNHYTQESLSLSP
light: B1 light
notes: homodimerized: alteration in both H chains; also called Ho Ab S324_06M
B5: GpH7-B3 variant S239_08L/GpL16-k0 (antibody, human IgG1, kappa)
heavy: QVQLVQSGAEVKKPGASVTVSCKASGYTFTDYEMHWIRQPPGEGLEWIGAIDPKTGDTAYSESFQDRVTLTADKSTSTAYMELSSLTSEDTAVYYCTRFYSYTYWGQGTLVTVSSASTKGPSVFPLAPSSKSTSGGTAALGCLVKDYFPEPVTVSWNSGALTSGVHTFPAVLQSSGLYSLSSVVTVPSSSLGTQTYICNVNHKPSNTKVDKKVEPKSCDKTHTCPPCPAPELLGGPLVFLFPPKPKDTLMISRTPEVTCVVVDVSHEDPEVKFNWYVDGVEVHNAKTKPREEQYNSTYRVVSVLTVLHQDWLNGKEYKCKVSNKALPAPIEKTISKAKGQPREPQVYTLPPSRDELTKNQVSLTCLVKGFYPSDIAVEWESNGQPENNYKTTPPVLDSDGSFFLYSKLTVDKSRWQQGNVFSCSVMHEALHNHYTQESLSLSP
light: B1 light
notes: homodimerized: alteration in both H chains; also called Ho Ab S239_08L
B6: GpH7-B3 variant S298_08L/GpL16-k0 (antibody, human IgG1, kappa)
heavy: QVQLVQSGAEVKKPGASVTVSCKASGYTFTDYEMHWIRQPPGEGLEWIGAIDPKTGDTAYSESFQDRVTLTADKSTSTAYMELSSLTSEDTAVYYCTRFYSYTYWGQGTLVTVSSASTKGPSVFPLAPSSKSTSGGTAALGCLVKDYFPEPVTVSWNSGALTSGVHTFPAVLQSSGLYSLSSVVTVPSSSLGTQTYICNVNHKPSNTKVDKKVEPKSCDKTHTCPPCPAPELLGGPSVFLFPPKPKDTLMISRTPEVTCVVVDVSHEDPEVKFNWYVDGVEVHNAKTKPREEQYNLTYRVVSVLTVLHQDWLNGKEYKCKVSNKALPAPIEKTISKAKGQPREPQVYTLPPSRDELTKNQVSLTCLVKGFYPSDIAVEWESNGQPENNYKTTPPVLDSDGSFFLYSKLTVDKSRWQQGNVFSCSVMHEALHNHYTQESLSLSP
light: B1 light
notes: homodimerized: alteration in both H chains; also called Ho Ab S298_08L
B7: GpH7-B3 variant S337_07I/GpL16-k0 (antibody, human IgG1, kappa)
heavy: not shown
light: B1 light
notes: homodimerized: alteration in both H chains; also called Ho Ab S337_07I
B8: GpH7-B3 variant P238_03V/GpL16-k0 (antibody, human IgG1, kappa)
heavy: not shown
light: B1 light
notes: homodimerized: alteration in both H chains; also called Ho Ab P238_03V
B9: GpH7-B3 variant S337_06M/GpL16-k0 (antibody, human IgG1, kappa)
heavy: not shown
light: B1 light
notes: homodimerized: alteration in both H chains; also called Ho Ab S337_06M
B10: GpH7-B3 variant S337_19Q/GpL16-k0 (antibody, human IgG1, kappa)
heavy: not shown
light: B1 light
notes: homodimerized: alteration in both H chains; also called Ho Ab S337_19Q
B11: GpH7-B3 variant S239_10E/GpL16-k0 (antibody, human IgG1, kappa)
heavy: not shown
light: B1 light
notes: homodimerized: alteration in both H chains; also called Ho Ab S239_10E
B12: GpH7-B3 variant L328_13S/GpL16-k0 (antibody, human IgG1, kappa)
heavy: not shown
light: B1 light
notes: homodimerized: alteration in both H chains; also called Ho Ab L328_13S
B13: GpH7-B3 variant S337_16H/GpL16-k0 (antibody, human IgG1, kappa)
heavy: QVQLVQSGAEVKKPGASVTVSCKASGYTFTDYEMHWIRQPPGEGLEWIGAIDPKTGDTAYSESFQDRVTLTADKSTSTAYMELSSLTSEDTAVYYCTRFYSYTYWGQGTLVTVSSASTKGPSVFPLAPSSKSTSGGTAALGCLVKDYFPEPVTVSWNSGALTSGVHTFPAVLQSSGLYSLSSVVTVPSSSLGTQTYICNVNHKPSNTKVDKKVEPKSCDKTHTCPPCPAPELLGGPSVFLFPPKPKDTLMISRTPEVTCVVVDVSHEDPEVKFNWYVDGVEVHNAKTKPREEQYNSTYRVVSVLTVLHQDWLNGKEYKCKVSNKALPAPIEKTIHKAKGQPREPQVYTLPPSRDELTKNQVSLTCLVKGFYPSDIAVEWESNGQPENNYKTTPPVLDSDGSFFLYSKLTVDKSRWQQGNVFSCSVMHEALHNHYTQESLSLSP
light: B1 light
notes: homodimerized: alteration in both H chains; also called Ho Ab S337_16H
B14: GpH7-B3 variant K334_05P/GpL16-k0 (antibody, human IgG1, kappa)
heavy: not shown
light: B1 light
notes: homodimerized: alteration in both H chains; also called Ho Ab K334_05P
B15: GpH7-B3 variant S337_09D/GpL16-k0 (antibody, human IgG1, kappa)
heavy: not shown
light: B1 light
notes: homodimerized: alteration in both H chains; also called Ho Ab S337_09D
B16: GpH7-B3 variant T335_10E/GpL16-k0 (antibody, human IgG1, kappa)
heavy: not shown
light: B1 light
notes: homodimerized: alteration in both H chains; also called Ho Ab T335_10E
B17: GpH7-B3 variant S267_09D/GpL16-k0 (antibody, human IgG1, kappa)
heavy: not shown
light: B1 light
notes: homodimerized: alteration in both H chains; also called Ho Ab S267_09D
B18: GpH7-B3 variant P238_04F/GpL16-k0 (antibody, human IgG1, kappa)
heavy: not shown
light: B1 light
notes: homodimerized: alteration in both H chains; also called Ho Ab P238_04F
B19: GpH7-B3 variant L235_20W/GpL16-k0 (antibody, human IgG1, kappa)
heavy: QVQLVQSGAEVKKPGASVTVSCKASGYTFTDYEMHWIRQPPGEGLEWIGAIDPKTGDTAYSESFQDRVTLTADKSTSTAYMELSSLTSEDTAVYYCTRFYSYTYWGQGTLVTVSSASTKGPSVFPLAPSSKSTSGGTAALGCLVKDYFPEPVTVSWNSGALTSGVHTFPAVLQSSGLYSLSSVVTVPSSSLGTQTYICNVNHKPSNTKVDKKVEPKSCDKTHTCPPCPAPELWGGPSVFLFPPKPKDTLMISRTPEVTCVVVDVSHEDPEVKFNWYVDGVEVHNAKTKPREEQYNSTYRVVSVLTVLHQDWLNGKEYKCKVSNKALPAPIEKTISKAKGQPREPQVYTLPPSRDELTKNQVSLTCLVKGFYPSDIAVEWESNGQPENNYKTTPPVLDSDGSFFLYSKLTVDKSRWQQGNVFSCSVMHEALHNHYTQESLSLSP
light: B1 light
notes: homodimerized: alteration in both H chains; also called Ho Ab L235_20W
B20: GpH7-B3 variant P331_04F/GpL16-k0 (antibody, human IgG1, kappa)
heavy: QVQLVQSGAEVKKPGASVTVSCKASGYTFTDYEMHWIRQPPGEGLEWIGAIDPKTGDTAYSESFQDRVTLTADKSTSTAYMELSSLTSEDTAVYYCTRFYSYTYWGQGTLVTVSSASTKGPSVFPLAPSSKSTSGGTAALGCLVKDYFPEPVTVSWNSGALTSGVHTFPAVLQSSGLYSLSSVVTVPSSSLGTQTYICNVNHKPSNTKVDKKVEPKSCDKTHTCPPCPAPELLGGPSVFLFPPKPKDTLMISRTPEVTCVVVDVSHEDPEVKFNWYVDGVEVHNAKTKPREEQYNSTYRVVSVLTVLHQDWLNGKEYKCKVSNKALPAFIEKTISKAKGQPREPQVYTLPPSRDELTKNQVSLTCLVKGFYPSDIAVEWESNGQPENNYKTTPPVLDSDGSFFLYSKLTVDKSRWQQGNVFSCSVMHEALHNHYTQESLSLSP
light: B1 light
notes: homodimerized: alteration in both H chains; also called Ho Ab P331_04F
B21: GpH7-B3 variant S337_03V/GpL16-k0 (antibody, human IgG1, kappa)
heavy: not shown
light: B1 light
notes: homodimerized: alteration in both H chains; also called Ho Ab S337_03V
B22: GpH7-B3 variant T335_02A/GpL16-k0 (antibody, human IgG1, kappa)
heavy: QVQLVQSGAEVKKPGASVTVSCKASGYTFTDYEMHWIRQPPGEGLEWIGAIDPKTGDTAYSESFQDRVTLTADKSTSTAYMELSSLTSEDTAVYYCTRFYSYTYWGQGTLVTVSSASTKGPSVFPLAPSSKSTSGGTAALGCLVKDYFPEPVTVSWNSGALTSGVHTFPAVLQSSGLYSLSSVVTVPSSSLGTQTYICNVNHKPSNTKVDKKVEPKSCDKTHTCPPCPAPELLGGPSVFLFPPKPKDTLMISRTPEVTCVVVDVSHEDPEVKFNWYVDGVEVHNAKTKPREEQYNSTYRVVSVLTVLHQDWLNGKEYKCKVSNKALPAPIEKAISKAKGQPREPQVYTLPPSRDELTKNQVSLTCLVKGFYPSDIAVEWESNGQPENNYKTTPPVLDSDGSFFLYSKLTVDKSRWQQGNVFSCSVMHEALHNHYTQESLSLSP
light: B1 light
notes: homodimerized: alteration in both H chains; also called Ho Ab T335_02A
B23: GpH7-B3 variant P271_08L/GpL16-k0 (antibody, human IgG1, kappa)
heavy: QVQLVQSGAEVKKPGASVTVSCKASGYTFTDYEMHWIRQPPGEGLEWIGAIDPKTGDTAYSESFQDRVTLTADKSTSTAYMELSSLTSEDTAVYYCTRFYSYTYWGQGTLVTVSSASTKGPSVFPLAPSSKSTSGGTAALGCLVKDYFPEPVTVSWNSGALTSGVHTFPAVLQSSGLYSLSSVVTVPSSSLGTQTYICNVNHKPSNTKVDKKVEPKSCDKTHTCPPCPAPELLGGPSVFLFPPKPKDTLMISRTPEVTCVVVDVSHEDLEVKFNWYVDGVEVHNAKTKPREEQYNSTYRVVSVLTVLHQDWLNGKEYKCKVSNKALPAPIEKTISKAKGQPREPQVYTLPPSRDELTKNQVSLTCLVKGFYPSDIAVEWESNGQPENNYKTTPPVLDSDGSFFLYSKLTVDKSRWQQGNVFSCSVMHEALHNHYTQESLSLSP
light: B1 light
notes: homodimerized: alteration in both H chains; also called Ho Ab P271_08L
B24: GpH7-B3 variant S337_18N/GpL16-k0 (antibody, human IgG1, kappa)
heavy: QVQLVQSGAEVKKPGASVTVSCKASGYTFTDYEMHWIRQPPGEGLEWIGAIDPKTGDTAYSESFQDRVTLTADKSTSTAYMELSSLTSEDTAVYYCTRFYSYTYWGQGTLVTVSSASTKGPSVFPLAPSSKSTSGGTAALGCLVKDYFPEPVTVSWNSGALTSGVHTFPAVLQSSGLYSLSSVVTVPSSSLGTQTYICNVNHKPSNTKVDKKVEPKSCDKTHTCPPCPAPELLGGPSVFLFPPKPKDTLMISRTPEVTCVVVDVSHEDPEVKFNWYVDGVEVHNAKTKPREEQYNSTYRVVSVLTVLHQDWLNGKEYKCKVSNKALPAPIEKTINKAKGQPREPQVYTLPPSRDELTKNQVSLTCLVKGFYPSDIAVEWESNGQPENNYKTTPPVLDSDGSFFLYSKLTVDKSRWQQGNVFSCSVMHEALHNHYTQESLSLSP
light: B1 light
notes: homodimerized: alteration in both H chains; also called Ho Ab S337_18N
B25: GpH7-B3 variant P331_02A/GpL16-k0 (antibody, human IgG1, kappa)
heavy: not shown
light: B1 light
notes: homodimerized: alteration in both H chains; also called Ho Ab P331_02A
B26: GpH7-B3 variant S267_19Q/GpL16-k0 (antibody, human IgG1, kappa)
heavy: not shown
light: B1 light
notes: homodimerized: alteration in both H chains; also called Ho Ab S267_19Q
B27: GpH7-B3 variant S337_20W/GpL16-k0 (antibody, human IgG1, kappa)
heavy: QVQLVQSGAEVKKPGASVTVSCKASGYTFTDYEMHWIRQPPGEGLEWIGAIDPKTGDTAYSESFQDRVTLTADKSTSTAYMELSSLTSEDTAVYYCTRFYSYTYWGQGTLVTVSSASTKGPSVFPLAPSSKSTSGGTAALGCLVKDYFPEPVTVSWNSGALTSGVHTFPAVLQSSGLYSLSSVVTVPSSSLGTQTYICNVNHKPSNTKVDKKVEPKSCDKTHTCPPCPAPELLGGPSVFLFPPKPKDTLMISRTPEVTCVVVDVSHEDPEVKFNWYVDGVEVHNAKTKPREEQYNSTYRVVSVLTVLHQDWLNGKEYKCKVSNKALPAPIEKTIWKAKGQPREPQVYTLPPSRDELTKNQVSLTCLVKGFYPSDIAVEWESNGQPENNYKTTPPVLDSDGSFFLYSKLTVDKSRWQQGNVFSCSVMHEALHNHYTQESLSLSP
light: B1 light
notes: homodimerized: alteration in both H chains; also called Ho Ab S337_20W

biological target: T1, FcγRIIa R extracellular domain with …; test: SPR (Biacore), relative FcγRIIa R binding, GpH7-B3/GpL16-k0 = 100
Description: Analysis of interaction between objective antibody and the FcγR was carried out using Biacore T100 (GE Healthcare). HBS-EP+ (GE Healthcare) was used as the running buffer, and the measurement temperature was set to 25° C. Chips produced by immobilizing the antigen peptide by the amine coupling method to a Series S Sencor Chip CM5 (GE Healthcare), or alternatively, chips produced by allowing preliminarily biotinylated antigen peptides to interact with and immobilize onto a Series S Sensor Chip SA (certified) (GE Healthcare) were used. Antibodies of interest were captured onto an antigen peptide-immobilized chip, and allowed to interact to each FcγR diluted with running buffer. To regenerate and repeatedly use the chip, the antibodies captured on the chip were washed off by reacting 10 mM glycine-HCl, pH 1.5.

Ho/Con_2aR	Binder
100 % of control	B1
105 % of control	B2
100 % of control	B3
118 % of control	B4
106 % of control	B5
101 % of control	B6
103 % of control	B7
116 % of control	B8
101 % of control	B9
102 % of control	B10
122 % of control	B11
108 % of control	B12
107 % of control	B13
102 % of control	B14
114 % of control	B15
109 % of control	B16
167 % of control	B17
146 % of control	B18
114 % of control	B19
106 % of control	B20
102 % of control	B21
102 % of control	B22
102 % of control	B23
103 % of control	B24
102 % of control	B25
110 % of control	B26
105 % of control	B27
